From the nanobody polyreactivity screen of Harvey et al. (2022)

Experiment: yeast display, Sf9 membrane polyspecificity reagent, FACS + sequencing; frameworks hold sequencing errors
How it was run: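 Galactose-induced (36–48 hours) yeast carrying a synthetic nanobody display library were exposed to 10% biotinylated, detergent-solubilized Sf9 membrane reagent at 4 °C for 1 hour. FACS followed streptavidin microbead enrichment, using low and high (top ~1%) gates for expression (anti-HA) and reagent binding (streptavidin). Colony PCR, MiSeq 2 × 250 sequencing and CDR-length filtering followed. Labels for polyreactivity reflect the gate of origin.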
In the case of “QVQLVESGGGLVQAGGSLRLSCAASGSTFSRNAMGWYRQAPGKERELVAGITTSGGRTYYADSVKGRFTISRDNAKNTVYLQMNSLKPEDTAVYYCANSGYRYFYGRPRFDYWGQGTQVTVSS”, the “polyreactivity (PSR sort gate)” value is reported as “high polyreactivity”. For “QVQLVESGGGLVQAGGSLRLSCAASGSTFSRNTMGWYRQAPGKERELVAAISKSGGRTYYADSVKGRFTISRDNAKNTVYLQMNSLKPEDTAVYYCNAAVYAYASDYWGQGTQVTVSS”, the “polyreactivity (PSR sort gate)” value was “high polyreactivity”. In the case of “QVQLVESGGGLVQAGGSLRLSCAASGSTFSRYAMGLYRQATGKDRELVAAISWRGGRTYYADSVKGRFTISRDNAKNTVYLQMNSLKPEDTAVDYCAGLGDDATSYGYWGHGTQVTVSS”, the “polyreactivity (PSR sort gate)” value is reported as “high polyreactivity”. In the case of “QVQLVESGGGLVQAGGSLRLSCAASGSTFSRYAMGWYRQAPGKERELVAAISSSGGSTYYADSVKGRFTISRDNAKNTVYLQMNSLKPEDTAVYYCAARIWRTRRYDYWGQGTQVTVSS”, the “polyreactivity (PSR sort gate)” value is reported as “high polyreactivity”. With “QVQLVESGGGLVQAGGSLRLSCAASGSTFSRYAMGWYRQAPGKERELVAAISWRGGRTYYADSVKGRFTISRDNAKNTVYLQMNSLKPADTAVYYCNAVSYFTSQRYDYWGQGTQVTVSS” the “polyreactivity (PSR sort gate)” value was “high polyreactivity”. With “QVQLVESGGGLVQAGGSLRLSCAASGSTFSRYTMGWYRQAPGKERELVAAISYRGGSTYYADSVKGRFTISRDNAKNTVYLQMNSLKPEDTAVYYCAAEYRVEGSDYDYWGQGSQVTVSS” the “polyreactivity (PSR sort gate)” value was “low polyreactivity”. With “QVQLVESGGGLVQAGGSLRLSCAASGSTFSRYTMGWYRQAPGKERELVAAITWSGGRTYYADSVKGRFTISRDNAKNTVYLQMNSLKPEDTAVSYCNVDSSRYSGYDYWGQGTQVTVSS” the “polyreactivity (PSR sort gate)” value was “high polyreactivity”. For “QVQLVESGGGLVQAGGSLRLSCAASGSTFSSNAMGWYRQAPGKERELVAAIDRGGSTYYADSVKGRFTISRDNAKNTVYLQMNSLKPEDTAVYYCAKGFDFRRRYDYWGQGTQVTVSS”, the “polyreactivity (PSR sort gate)” value was “low polyreactivity”. For “QVQLVESGGGLVQAGGSLRLSCAASGSTFSSYAMAWYRQAPGKERELVAAISSVGVDTYYADSVKGRFTISRDNAKNTVYLQMISLKPEDTAVYYCAAGRYGWWRHYFVFKYDYWGQGTQVTVSS”, the “polyreactivity (PSR sort gate)” value was “low polyreactivity”. With “QVQLVESGGGLVQAGGSLRLSCAASGSTFSSYAMGWYIQAPGKERELVAAITSSGGTTYYSDSVKGRFTISRDNAKNTVYLQMNSLKPEDTAVYYCAAADVIFWLYYYWGQGTQVTVSS” the “polyreactivity (PSR sort gate)” value was “low polyreactivity”. With “QVQLVESGGGLVQAGGSLRLSCAASGSTFSSYAMGWYRPAPGKERELVAAITSSGGSTYYADSVKGRFTISRDNAKNTVYLQMNSLKPEDTAVYYCAAADVIFWLYYYWGQGTQVTVSS” the “polyreactivity (PSR sort gate)” value was “low polyreactivity”. With “QVQLVESGGGLVQAGGSLRLSCAASGSTFSSYAMGWYRQAPGKERELVAAINWSGTRTYYADSVKGRFTISRDNAKNTVYLQMNSLKPEDTAVYYCAAVLSLSSRQGVITKGDYWGQGTQVTVSS” the “polyreactivity (PSR sort gate)” value was “low polyreactivity”. For “QVQLVESGGGLVQAGGSLRLSCAASGSTFSSYAMGWYRQAPGKERELVAAISSSGVRTYYADSVKGRFTISRDNAKNSVYLQMNSLKPEDTAVYYCKLTLLTVNRTGMTTWGQGTQVTVSS”, the “polyreactivity (PSR sort gate)” value was “high polyreactivity”. In the case of “QVQLVESGGGLVQAGGSLRLSCAASGSTFSSYAMGWYRQAPGKERELVAGIAWGGSSTDYADSVKWRFTISRDTAKNTVYLQMNSLKPEDTAVYYCARRYRRGWSTLDYWGQGTQVTVSS”, the “polyreactivity (PSR sort gate)” value is reported as “low polyreactivity”. With “QVQLVESGGGLVQAGGSLRLSCAASGSTFSTNAMGWYRQAPAKERELVAAISYSGGSTYYADSVKGRFTISRDNAKNTVYLQMLSLKPEDTAVYYCAADGYYYNSGGRYYEFYYWGQGTQVTVSS” the “polyreactivity (PSR sort gate)” value was “low polyreactivity”. With “QVQLVESGGGLVQAGGSLRLSCAASGSTFSTNAMGWYRQAPGKESELVASITRSGGSTYYADSVKGRFTISRDNAKNTVYLQMNSLKPEDTAVYYCNADGYYDYDYGYWGQGTQVTVSS” the “polyreactivity (PSR sort gate)” value was “low polyreactivity”.
